Results published in the DeepSol protein solubility set.

test: soluble on expression in E. coli; label from the status in PepcDB or PDB records

**Q.** Which “soluble on expression in E. coli” value does the source give for “VNTFSVSRLALALAFGVTLTACSSTPPDQRPSDQTAPGTSSRPILSAKEAQNFDAQHYFASLTPGAAAWNPSPITLPAQPDFVVGPAGTQGVTHTTIQAAVDAAIIKRTNKRQYIAVMPGEYQGTVYVPAAPGGITLYGTGEKPIDVKIGLSLDGGMSPADWRHDVNPRGKYMPGKPAWYMYDSCQSKRSDSIGVLCSAVFWSQNNGLQLQNLTIENTLGDSVDAGNHPAVALRTDGDQVQINNVNILGRQNTFFVTNSGVQNRLETNRQPRTLVTNSYIEGDVDIVSGRGAVVFDNTEFRVVNSRTQQEAYVFAPATLSNIYYGFLAVNSRFNAFGDGVAQLGRSLDVDANTNGQVVIRDSAINEGFNTAKPWADAVISNRPFAGNTGSVDDNDEIQRNLNDTNYNRMWEYNNRGVGSKVVAEAKK” here?
**A.** soluble

**Q.** With “MRGTDMAKQQMNIKIKKGEQFPVTIQRIGINGEGVGYFQKQVVFVPGALPGEEVIVEATDIHPTYAEAKIKRIRKRSPNRIKPPCPLYDQCGGCQLQHLSYEAQLEAKRDIVIQALRRHARRLDVDKLDIRPTIGMDNPWHYRNKSQFQVGMKEGKVLAGLYGINSHRLIDLSECRVQHPQTTRVTNIVKTILQDLRIPIYNERTRTGVVRTIVVRVGFHTGDIQLVLVTATKDIPRKQLLIDEIRRRLPEVKSIVQNINGEKTSLIFGDETEVLAGDEYIQETLGDLSFELSSRAFFQLNPLQTVKLYDEVKKAAALTGTERIVDAYCGVGTIGLWLARDAKEVRGMDTIPEAIEDAQNNAKKHGFTNTHYVVGKAEYWLPKWVKGGWKPDVIIVDPPRVGCDRALLETILHVRPKTVVYVSCNPSSLARDLDALAAQYRVDYIQPVDMFPHTAHVECVAKVRLEL” as the sequence, how does the “soluble on expression in E. coli” value read?
**A.** not soluble

**Q.** Which “soluble on expression in E. coli” value does the source give for “MGSDKIHHHHHHMKVNLPAFERAGVMVVGDVMLDRYWYGPTCRISPEAPVPVVKVNTVEERPGGAANVAMNIASLGANARLVGLTGIDDAARALSKTLAEVNVKCDFVSVPTHPTITKLRVLSRNQQLIRLDFEEGFEGVDPQPLHERINQALGSIGALVLSDYAKGALTSVQTMISLARQAGVPVLIDPKGTDFERYRGATLLTPNLSEFEAVAGKCKSEDELVERGMKLIADYDLSALLVTRSEQGMTLLQPNKAPLHMPTQAQEVYDVTGAGDTVIGVLAATLAAGNTLEEACYFANAAAGVVVGKLGTSTVSPIELENAVRGRADTGFGVMTEEELRQAVASARKRGEKVVMTNGVFDILHAGHVSYLANARKLGDRLIVAVNSDASTKRLKGESRPVNPLEQRMIVLGALESVDWVVSFEEDTPQRLIAGILPDLLVKGGDYKPEEIAGSEEVWANGGEVMVLNFEDGCSTTNIIKKIQTESEK” here?
**A.** not soluble

**Q.** For “MGSDKIHHHHHHVAELVFFSGTMDCGKSTLALQMDHNHRARGRGGVRFSRNDRAGGARISSRLGLETDCVEVLDTTDFWDEVIERRTRGLRVDYLICDEAQFYSPLQVEQLARIVDEIDVDVFAFGISADFRTRLFPGSQRLIELADRVQVLQVEALCWCGRRATHNARTVDGVMVTEGAQVVVGDVDMAGDPASASADHAPVVGYETLCRRHFMRRVTAHGANVMAQQDQLLPFEVDACLWHGSGETRHS”, which “soluble on expression in E. coli” value is on record?
**A.** not soluble

**Q.** For “MGSDKIHHHHHHMTMLSTPQPTLADLAIEPGLPTVVSPRAGAAISLEEAAPLLRAIVDDTLERAGGVLFTGFHVASIDAFQSFAGSFGHPLIGYEFASTPRSQVEGAVYTSTEYPPHRSIPLHNEQSYTREWPLRIWFHCALAARSGGATPIADSRAIYRALDPALVDRFAKRELLYVRNFGQGLDLPWEQAFGSADPRTVERICRARGIECEWRDSEDGELLLRTRERCQAVARHPRTGEHVWFNQANLFHLSSLDEDMQEALIDSVGLENVPRNVYYGDGEPLEADALAEIRGVLDQQRIVFPWLTGDVLMLDNMLSAHARDPFEGPRKVVVAMARSYSEAEGEKRTAAP”, which “soluble on expression in E. coli” value is on record?
**A.** not soluble

**Q.** With “MSMAMSQSNRELVVDFLSYKLSQKGYSWSQFSDVEENRTEAPEGTESEAVKQALREAGDEFELRYRRAFSDLTSQLHITPGTAYQSFEQVVNELFRDGVNWGRIVAFFSFGGALCVESVDKEMQVLVSRIAAWMATYLNDHLEPWIQENGGWDTFVELYGNNAAAESRKGQERLEHHHHHH” as the sequence, how does the “soluble on expression in E. coli” value read?
**A.** soluble

**Q.** For “MSGAVPETPYHQRWLAFPDAVSSYRPLESRLAGTSRATADNRTPCTGRLGTPRVFLMATDDVSKAYSSPTFDAEALLGTVISAEDPDRVLIEPWATGVDGVILDVGSGTGRWTGHLASLGHQIEGLEPATRLVELARQTHPSVTFHHGTITDLSDSPKRWAGLLAWYSLIHMGPGELPDALVALRMAVEDGGGLLMSFFSGPSLEPMYHPVATAYRWPLPELAQALETAGFQVTSSHWDPRFPHAYLTAEASKQNLALEHHHHHH”, which “soluble on expression in E. coli” value is on record?
**A.** not soluble

**Q.** Which “soluble on expression in E. coli” value does the source give for “MRILHTADWHLGKTLEGRSRLSEQADVLDELNTIVKDEQIDAIVMAGDAFDTVNPPALAEQLFYESLSALSDRGKRPIVVIAGNHDNPDRLSAASPLTHENGIHLIGYPTTEPIHIEVPSAGELLAVGALAYPSEARLNEVLSDTFDEKLLRDHYDVKIRQAFEHMTSRFRTDAVKIAASHIYVAGGNQTDSDGPIEVGGAYTVAAESLPADAAYVALGHLHRPQTIKRARTLARYSGSPLAYSFSEAGYAKSVTIVDAKPGEEATWQEVLLSSGKPLVKWKAANGLSEVYSWLDEGRDQNAWIDLEIRVADQLSLEEIHRLRKAHPGFIHIRPVFEEQNKDRERIEVKHVSIEDRFKKFYEKQTGGAVPDEEMVRLFLELASGVEEEDAK” here?
**A.** not soluble

**Q.** With “MLRKLWKRPHSTWNKITAVTNVSSEKTITDGQLSEKARKDVDHDVDRTIYDIPLEYCHLRIPKSRTSRSCPDPWRRYGAHVKLCEVGGWMPENRNKNSKVIVVKKGSAPPAAPRCKPLMTVEDYLGVLRK” as the sequence, how does the “soluble on expression in E. coli” value read?
**A.** not soluble

**Q.** With “MITMNMNDYKNKRVPPDWCPGCGNFAQLSAITMALAELKIDPKDVVVASGIGCSSNMPEFLNTYGFHGLHGRLVPFAAGVKWANSKLTVIAYGGDGDGFFEGTQHFYHTAKRNVDITYMVSDNQVFGLTTGQASPTAPIGLKTKTTPDGNIETPFNPIAFALNAGATFVARAFSGDIKHLKDITVRAIKHKGFSFIDVISPCVTWNKENSYEYFRPRVYHLENNDVTNFDQAYKLAFEWGDHIPIGVFYEVERPTYEDLDEVLKEGPLVEQGIHKLTEDDLEEFA” as the sequence, how does the “soluble on expression in E. coli” value read?
**A.** not soluble

**Q.** Which “soluble on expression in E. coli” value does the source give for “MKKTAIAIAVALAGFATVAQAEVKLHESGAGLVKPGASVEISCKATGYTFSSFWIEWVKQRPGHGLEWIGEILPGRGRTNYNEKFKGKATFTAETSSNTAYMQLSSLTSEDSAVYYCATGNTMVNMPYWGQGTTVTVSSASTKGPSVFPLAPSSKSTSGGTAALGCLVKDYFPEPVTVSWNSGALTSGVHTFPAVLQSSGLYSLSSVVTVPSSSLGTQTYICNVNHKPSNTKVDKKVEPKSCSAWSHPQFEK” here?
**A.** soluble

**Q.** For “MAHHHHHHMEGEEVPLVQPFRQHREQCRVKLQEIGPRMTLQLSKVENGFAGGEVIYHRTEKKTLREVQVNASKVRARKTEKAKRRALQDENVQRKRQKREDKLERKHQRREAAAEAQQANPFEVAHGDGDGDGYAAGDEE”, which “soluble on expression in E. coli” value is on record?
**A.** not soluble

**Q.** Which “soluble on expression in E. coli” value does the source give for “MDRKVAREFRHKVDFLIENDAEKDYLYDVLRMYHQTMDVAVLVGDLKLVINEPSRLPLFDAIRPLIPLKHQVEYDQLTPRRSRKLKEVRLDRLHPEGLGLSVRGGLEFGCGLFISHLIKGGQADSVGLQVGDEIVRINGYSISSCTHEEVINLIRTEKTVSIKVRHIGLIPVKSSPDEPLTWQYVDQFVSES” here?
**A.** soluble

**Q.** Which “soluble on expression in E. coli” value does the source give for “MSSLGNQSEKNSNNKFSDNVPLAQHEIWKEKYESLVTEHENLVKEHETLIKTLELIEKHEITLEDLVKKKQREALVGKEEIEKFDKEIGERKKMQEMLDKDLEYLKSCEETVMNGMSSGPSGARVADKRNVNKFESQEGNFKCFLICV” here?
**A.** not soluble

**Q.** For “RSLVSVHNEWDPLEEVIVGTAVGARVPTADRSVFAVEYAGDYESQEQIPSGAYPDRVLKETEEELHVLAAELTKLGVTVRRPGPRDHSALIKTPDWETDGFHDYCPRDGLLSVGQTIIETPMALRSRFLESLAYKDLLLEYFASGSRWLSAPKPRLTDDSYAPQAPAGERLTDEEPVFDAANVLRFGTDLLYLVSDSGNELGAKWLQSAVGDTYTVHPCRKLYASTHVDSTIVPLRPGLVLTNPSRVNDENMPDFLRSWENITCPELVDIGFTGDKPHCSVWIGMNLLVVRPDLAVVDRRQTALIRLLEKHGMNVLPLQLTHSRTLGGGFHCATLDVRRTGALETYQF”, which “soluble on expression in E. coli” value is on record?
**A.** soluble
